Assay results as given in publication PMC12583452, “MCM5 UFMylation regulates replication origin firing and fork progression” (The EMBO Journal, 2025).

T1: FLAG-MCM5 (K583R), expressed in HeLa cells (human, UniProt P33992 1-734, K583R)
T1 construct: human MCM5, full-length cDNA in a pcDNA3.0 3XFLAG vector, point mutation K583R (UFMylation-resistant); also called KR; Lys583Arg; source: HeLa, transfected; in fixed cells (PLA) and in the chromatin fraction (IP)
T1 sequence (looked up): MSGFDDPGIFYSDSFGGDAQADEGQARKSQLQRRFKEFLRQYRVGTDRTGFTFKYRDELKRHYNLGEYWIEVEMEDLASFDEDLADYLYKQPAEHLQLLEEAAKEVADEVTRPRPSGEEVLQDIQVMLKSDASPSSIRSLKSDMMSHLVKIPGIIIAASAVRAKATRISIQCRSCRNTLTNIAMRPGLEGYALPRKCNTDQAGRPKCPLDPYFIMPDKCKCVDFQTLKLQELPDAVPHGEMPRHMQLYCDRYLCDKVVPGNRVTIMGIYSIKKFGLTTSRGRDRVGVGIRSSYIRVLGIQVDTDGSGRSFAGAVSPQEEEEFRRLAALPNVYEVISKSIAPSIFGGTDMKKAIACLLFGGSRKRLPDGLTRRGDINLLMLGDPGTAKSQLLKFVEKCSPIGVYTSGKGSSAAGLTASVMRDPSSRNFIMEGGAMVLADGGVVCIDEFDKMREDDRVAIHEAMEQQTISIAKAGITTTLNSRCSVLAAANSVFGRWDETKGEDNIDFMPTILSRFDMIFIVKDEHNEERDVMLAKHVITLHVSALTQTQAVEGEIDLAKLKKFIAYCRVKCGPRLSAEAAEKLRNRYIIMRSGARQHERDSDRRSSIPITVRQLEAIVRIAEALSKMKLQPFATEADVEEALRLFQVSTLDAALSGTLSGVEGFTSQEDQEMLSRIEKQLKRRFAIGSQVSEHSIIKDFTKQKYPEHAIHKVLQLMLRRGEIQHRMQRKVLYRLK

T2: His-UFL1 (UniProt O94874 1-794)
T2 construct: UFL1; construct pet28a-UFL1; also called pet28a-UFL1; source: E. coli BL21, purified (Ni-NTA agarose)
T2 sequence (looked up): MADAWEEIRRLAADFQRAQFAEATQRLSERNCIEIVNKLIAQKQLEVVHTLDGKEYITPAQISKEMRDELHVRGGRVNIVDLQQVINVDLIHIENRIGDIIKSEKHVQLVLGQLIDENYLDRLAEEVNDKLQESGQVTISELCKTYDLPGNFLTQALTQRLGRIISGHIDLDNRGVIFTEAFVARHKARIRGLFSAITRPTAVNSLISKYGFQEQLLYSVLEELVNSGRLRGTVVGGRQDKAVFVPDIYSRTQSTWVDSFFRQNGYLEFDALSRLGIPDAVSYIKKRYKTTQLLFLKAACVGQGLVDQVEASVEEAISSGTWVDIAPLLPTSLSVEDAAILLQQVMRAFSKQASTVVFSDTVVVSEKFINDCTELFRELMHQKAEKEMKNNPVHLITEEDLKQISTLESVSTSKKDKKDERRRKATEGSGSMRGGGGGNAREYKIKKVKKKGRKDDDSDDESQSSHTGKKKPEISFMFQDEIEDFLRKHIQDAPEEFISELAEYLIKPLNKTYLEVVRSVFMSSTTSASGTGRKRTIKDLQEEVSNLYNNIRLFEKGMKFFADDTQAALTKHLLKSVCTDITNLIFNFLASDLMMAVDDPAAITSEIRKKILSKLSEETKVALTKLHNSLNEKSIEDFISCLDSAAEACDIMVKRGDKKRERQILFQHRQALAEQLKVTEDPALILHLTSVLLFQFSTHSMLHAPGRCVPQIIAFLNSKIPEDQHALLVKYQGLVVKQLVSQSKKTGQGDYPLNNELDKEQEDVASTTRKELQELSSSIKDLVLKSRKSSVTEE


Tests used:
[1] = biological target: T1, FLAG-MCM5 (K583R), expressed in HeLa …; experiment: proximity ligation; HeLa cells transfected with FLAG-VEC, FLAG-MCM5 (WT) or FLAG-MCM5 (K583R), 1 h after release from double-thymidine block; PLA with CDC45; settings: partners not purified
[2] = biological target: T2, His-UFL1; experiment: pull-down; GST pull-down in vitro with purified GST-MCM5 and His-UFL1; bead-associated proteins analysed by western blot; settings: both partners purified

| fold decrease in PLA foci per cell against WT MCM5 [1] | binding result [2] | Binder |
| --- | --- | --- |
| 4 fold | – | CDC45 (endogenous, HeLa) (natural protein, human (endogenous in HeLa), UniProt O75419 1-566, looked up, CDC45 (cell division cycle 45), endogenous in HeLa; also called cell division cycle 45; source: endogenous, HeLa (fixed cells for PLA; chromatin fraction)) MFVSDFRKEFYEVVQSQRVLLFVASDVDALCACKILQALFQCDHVQYTLVPVSGWQELETAFLEHKEQFHYFILINCGANVDLLDILQPDEDTIFFVCDTHRPVNVVNVYNDTQIKLLIKQDDDLEVPAYEDIFRDEEEDEEHSGNDSDGSEPSEKRTRLEEEIVEQTMRRRQRREWEARRRDILFDYEQYEYHGTSSAMVMFELAWMLSKDLNDMLWWAIVGLTDQWVQDKITQMKYVTDVGVLQRHVSRHNHRNEDEENTLSVDCTRISFEYDLRLVLYQHWSLHDSLCNTSYTAARFKLWSVHGQKRLQEFLADMGLPLKQVKQKFQAMDISLKENLREMIEESANKFGMKDMRVQTFSIHFGFKHKFLASDVVFATMSLMESPEKDGSGTDHFIQALDSLSRSNLDKLYHGLELAKKQLRATQQTIASCLCTNLVISQGPFLYCSLMEGTPDVMLFSRPASLSLLSKHLLKSFVCSTKNRRCKLLPLVMAAPLSMEHGTVTVVGIPPETDSSDRKNFFGRAFEKAAESTSSRMLHNHFDLSVIELKAEDRSKFLDALISLLS |
| – | binds | GST-MCM5 (natural protein, human, UniProt P33992 1-734, looked up, human MCM5 in pGEX-4T-1; the GST construct is probably the same insert; also called pGEX-4T-1 MCM5; WT GST-MCM5; source: E. coli BL21, purified (Glutathione-Sepharose 4B)) MSGFDDPGIFYSDSFGGDAQADEGQARKSQLQRRFKEFLRQYRVGTDRTGFTFKYRDELKRHYNLGEYWIEVEMEDLASFDEDLADYLYKQPAEHLQLLEEAAKEVADEVTRPRPSGEEVLQDIQVMLKSDASPSSIRSLKSDMMSHLVKIPGIIIAASAVRAKATRISIQCRSCRNTLTNIAMRPGLEGYALPRKCNTDQAGRPKCPLDPYFIMPDKCKCVDFQTLKLQELPDAVPHGEMPRHMQLYCDRYLCDKVVPGNRVTIMGIYSIKKFGLTTSRGRDRVGVGIRSSYIRVLGIQVDTDGSGRSFAGAVSPQEEEEFRRLAALPNVYEVISKSIAPSIFGGTDMKKAIACLLFGGSRKRLPDGLTRRGDINLLMLGDPGTAKSQLLKFVEKCSPIGVYTSGKGSSAAGLTASVMRDPSSRNFIMEGGAMVLADGGVVCIDEFDKMREDDRVAIHEAMEQQTISIAKAGITTTLNSRCSVLAAANSVFGRWDETKGEDNIDFMPTILSRFDMIFIVKDEHNEERDVMLAKHVITLHVSALTQTQAVEGEIDLAKLKKFIAYCRVKCGPRLSAEAAEKLKNRYIIMRSGARQHERDSDRRSSIPITVRQLEAIVRIAEALSKMKLQPFATEADVEEALRLFQVSTLDAALSGTLSGVEGFTSQEDQEMLSRIEKQLKRRFAIGSQVSEHSIIKDFTKQKYPEHAIHKVLQLMLRRGEIQHRMQRKVLYRLK |
